Assay results reported in patent publication US9301997B2, “Method of vaccination for limiting articular inflammation in rheumatoid arthritis and multiple sclerosis by administering IL-23 peptides” (PEPTINOV SAS, priority 2009, dated 2016).

What was measured:
human IL-23 [1] = molecular target: T1, human IL-23 (Homo sapiens, UniProt Q9NPF7); assay: Neutralization assay for human IL-23 (IL-17 secretion by purified mouse splenocytes); format: cell-based; details: for Neutralization of the biological activity of human IL-23: purified IgG of immunized rabbits, result in words; for Average % neutralization, SD: purified rabbit antibodies at a dilution of 1/20, 1 ng/mL bioactive hIL-23
T1 sequence (Q9NPF7 20-189): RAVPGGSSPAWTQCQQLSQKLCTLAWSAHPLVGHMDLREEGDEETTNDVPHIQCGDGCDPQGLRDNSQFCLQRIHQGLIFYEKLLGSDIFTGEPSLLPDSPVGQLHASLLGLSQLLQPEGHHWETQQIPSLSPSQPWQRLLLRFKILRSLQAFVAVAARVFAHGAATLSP
T1 sequence (P29460 23-328 partner): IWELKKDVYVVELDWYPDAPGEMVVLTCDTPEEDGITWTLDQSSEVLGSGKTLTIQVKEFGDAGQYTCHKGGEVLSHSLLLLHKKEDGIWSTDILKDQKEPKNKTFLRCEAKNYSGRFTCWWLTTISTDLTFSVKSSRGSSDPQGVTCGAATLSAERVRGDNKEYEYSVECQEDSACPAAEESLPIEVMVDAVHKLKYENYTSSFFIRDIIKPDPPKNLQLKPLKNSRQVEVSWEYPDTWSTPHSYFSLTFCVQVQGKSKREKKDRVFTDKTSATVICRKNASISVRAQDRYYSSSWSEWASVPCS
Method: The neutralization capacity of the purified total IgG fraction derived from the 4 immunized rabbits of example 1 was then tested in a neutralization assay for human IL-23. The test is based on the fact that purified mouse splenocytes secrete IL-17 in a dose dependent fashion, in response to the stimulation with bioactive human IL-23 (cf. FIG. 2). On the x-axis one can see the various dilutions of the IgG tested and on the y-axis the production of IL-17 as an optical density value. One sees that the IgG fraction of rabbits immunized against the peptide neutralize the biological activity of human IL-23 in a dose-dependent fashion. Each bar represents the mean of the tests performed with the 4 purified antibodies; the standard deviation is also indicated. The experimental conditions comprise two negative controls (no human IL-23 and no inhibitor) and a positive control with an anti-hIL-23 neutralizing antibody sold from the company R&D Systems (# ref: AF1716).
(§1) Four New Zealand rabbits were immunized with the cyclised peptide Y-C-KGE PAL LPD SP-C derived from the murine IL-23, similarly as in the protocol described in Example 1. The peptide was coupled with KLH via BDB and a supplementary tyrosine. The sera of the animals were purified by affinity column against protein A and the purified antibodies were tested in ELISA and in neutralisation assays. For ELISA, plates were coated either with murine or with human IL-23 and individual sera were tested at different dilutions to determine the Titer50. The titer corresponds to the dilution corresponding yielding an OD value at 50% of the maximal OD score (obtained for the smallest dilution, 1/50e). In parallel, different dilutions of the purified rabbit antibodies were tested on IL-23 neutralisation assays, similarly as in Examples 2, 3, and 4. Table 1 presents the average neutralisation obtained for the 4 purified antibodies rabbit at a dilution of 1/20 and in the presence of 1 ng/mL of bioactive mIL-23 or hIL-23.

murine IL-23 [2] = molecular target: T2, murine IL-23 (Mus musculus, UniProt Q9EQ14); assay: Neutralization assay for murine IL-23 (IL-17 secretion by purified mouse splenocytes); format: cell-based; details: purified IgG of immunized rabbits, result in words
T2 sequence (Q9EQ14 22-196): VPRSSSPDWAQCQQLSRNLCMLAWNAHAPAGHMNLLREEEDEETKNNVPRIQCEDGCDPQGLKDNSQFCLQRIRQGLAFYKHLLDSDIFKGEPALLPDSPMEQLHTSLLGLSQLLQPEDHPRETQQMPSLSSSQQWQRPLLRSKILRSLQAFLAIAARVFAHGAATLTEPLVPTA
T2 sequence (P43432 23-335 partner): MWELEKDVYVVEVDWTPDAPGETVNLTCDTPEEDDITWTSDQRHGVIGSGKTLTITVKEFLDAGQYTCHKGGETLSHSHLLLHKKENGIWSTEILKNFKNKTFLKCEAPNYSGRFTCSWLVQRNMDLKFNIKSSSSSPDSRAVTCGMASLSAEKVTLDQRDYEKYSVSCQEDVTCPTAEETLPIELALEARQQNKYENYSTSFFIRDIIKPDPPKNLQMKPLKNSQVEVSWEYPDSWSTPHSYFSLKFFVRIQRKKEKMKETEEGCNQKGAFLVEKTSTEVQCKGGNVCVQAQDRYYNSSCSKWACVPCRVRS
Description: The same IgG fraction from 4 immunized rabbits used in example 2 is used for a test of neutralization of the murine IL-23 cytokine. The test for murine IL-23 is based on the fact that purified mouse splenocytes secrete IL-17 in a dose dependent fashion, in response to the stimulation with bioactive […] IL-23 (cf. FIG. 3). One sees that the IgG fraction of rabbits immunized against the human IL-23 peptide can neutralize the biological activity of murine IL-23 in a dose-dependent fashion. Each bar represents the mean of the tests performed with the 4 purified antibodies; the standard deviation is also indicated. There are two negative controls (no mouse IL-23 and no inhibitor) and a positive control with an anti-murine IL-23 neutralizing antibody sold from the company R&D Systems (# ref: AF1619).
(§2) Four New Zealand rabbits were immunized with the cyclised peptide Y-C-KGE PAL LPD SP-C derived from the murine IL-23, similarly as in the protocol described in Example 1. The peptide was coupled with KLH via BDB and a supplementary tyrosine. The sera of the animals were purified by affinity column against protein A and the purified antibodies were tested in ELISA and in neutralisation assays. For ELISA, plates were coated either with murine or with human IL-23 and individual sera were tested at different dilutions to determine the Titer50. […]

[3] = test system: experimental autoimmune encephalomyelitis; assay: Experimental autoimmune encephalomyelitis mouse model of multiple sclerosis, vaccination; format: in vivo; details: C57BL/6 mice, 100 μg/animal s.c. 4 times, 30 days follow-up, versus carrier and PBS groups, p=0.0003
Method: The experimental autoimmune encephalomyelitis in mice is a well-known model of multiple sclerosis. Three groups of 12 C57BL/6 mice were injected 4-times (s.c.) either with 1/100 μg/animal of the same peptide derivative of murine IL-23 as in example 9 coupled with KLH and emulsioned in CFA for the initial immunization and IFA (ISA51) for the subsequent boosts, or with 2/the carrier protein prepared in the same conditions, or with 3/PBS alone. The injections took pace at day 0, 15, 30 and 45.
To induce the experimental disease, mice were immunized (s.c.) at two sites with 200 μg of MOG peptide 35-55 in […] of Complete Freund's Adjuvant (CFA) at day 60. On the same day and after two days, mice were injected (i.p.) with, respectively 75 and 200 ng/mouse, of pertussis toxin (List Biological Laboratories). The mice were then assessed daily for clinical signs of EAE according to the following well-known scoring method (Sinha et al., J. Immunol., 2008): 0, normal; 0.5, limp tail; 1, tail paralysis; 2, mono or paraparesis of the hind limbs; 3, mono or paraplegia of the hind limbs; 4, paraplegia of the forelimb; 5, moribund condition or death. The follow-up was done on a period of 30 days as shown (cf. FIG. 7).

[4] = test system: collagen-induced arthritis; assay: Collagen-induced arthritis mouse model of rheumatoid arthritis, vaccination; format: in vivo; details: DBA/1 mice
Description: The collagen-induced arthritis is a well-known model of rheumatoid arthritis, which reproduces the main features characterizing the human disease. The experimental disease is induced in the animal by two successive injections of type II bovine collagen in the tail. Clinical signs of disease occur a few days later, principally marked by a severe articular inflammation and the joint destruction. The articular inflammation can be quantified and reported as clinical scores by the person of the art: a score from 0 (no clinical sign) to 4 (total inflammation) is given for each articulation of each mouse. Groups of 10 mice are compared by the mean value of the scores obtained on […]. Similarly, the articular inflammation and destruction can be observed on histological sections of joints and be reported as histological scores by the person of the art.
DBA/1 mice (n=10 per treatment group) were vaccinated two weeks before the first injection of collagen either with the cyclised peptide derived from mIL23: C-DSD IFK GEP ALL PDS PME QL-C-Y (coupled with KLH via BDB and an additional tyrosine on the C-terminus), or with a control made of KLH alone, or with PBS alone. The injected dose in each mice corresponded to 100 μg of coupled peptide for the peptide group, and to 100 μg of KLH alone for the KLH control group, all in complete Freund's adjuvant. […]

murine IL-23 [5] = molecular target: T2, murine IL-23; assay: ELISA of purified rabbit antibodies on plates coated with murine IL-23; format: binding; details: antibodies of immunized rabbits, result in words
Method: (§3) Specific-pathogen-free New Zealand rabbits (n=4) are immunized with 100 μg of a peptide derivative of human IL-23 by five immunizations in CFA/IFA at day 0, 14, 28, 56 and 70. The peptide, whose sequence is C-GSD IFT GEP SLL PDS PVG QL-C-Y, was coupled to KLH with BDB. The sera from immunized rabbits were taken at day 82 after initial immunization, and the antibodies were purified by affinity chromatography against protein A. The purified antibodies were tested by ELISA at various dilutions and on a plate coated either by human IL-23 or by murine IL-23 (cf. FIG. 1). The mean OD value of the […] purified sera is given at the various dilutions for the ELISA tests against murine IL-23 (dotted line) and against human IL-23 (regular line).
as §2

human IL-23 [6] = molecular target: T1, human IL-23; assay: ELISA of purified rabbit antibodies on plates coated with human IL-23; format: binding; details: for Recognition of human IL-23 by antibodies raised against the peptide (ELISA): antibodies of immunized rabbits, result in words; for Average Titers50 (ELISA), SD: purified antibodies of rabbits immunized with the KLH-coupled peptide, plate coated with human IL-23, dilution yielding 50% of maximal OD
Method: as §3, §1

murine IL-23 [7] = molecular target: T2, murine IL-23; assay: Auto-antibody response against murine IL-23 in immunized mice (serum ELISA); format: in vivo; details: OF1 mice immunized intra-muscularly, 100 μg/injection, sera tested at 1/500
Method: A peptide of murine IL-23 is coupled to KLH in the presence of a coupling agent (BDB). The peptide has been cyclised thanks to the addition of 2 cysteine residues coupled to BDB through an additional tyrosine; its amino-acid sequence is: C-DSD IFK GEP ALL PDS PME QL-C-Y. The vaccinal composition is injected intra-muscularly […] in ten (10) OF1 mice, at a dose of 100 μg/injection once every 2 weeks at days 0, 15, 30, 45. The sera of the animals are taken after the boosts at days 20, 38, 60 and 80 and are tested by ELISA at a dilution of 1/500 and on a coating of murine IL-23. The ELISA results are given as optical density (OD450nm) values. FIG. 5 presents the mean OD450nm value obtained at each time-point for the 10 mice tested. The grey line represents the response of mice immunized with the peptide derivative of IL-23 (triangles). The dotted lines represents the response of control mice immunized with the vehicle (empty grey diamonds), and control mice immunized with the carrier protein only (empty grey squares).

Substance | Neutralization of the biological activity of murine IL-23 (murine IL-23 [2]) | Average % neutralization, SD (human IL-23 [1]) [%] | Average Titers50 (ELISA), SD (human IL-23 [6]) | Neutralization of the biological activity of human IL-23 (human IL-23 [1]) | Recognition of murine IL-23 by antibodies raised against the peptide (ELISA) (murine IL-23 [5]) | Recognition of human IL-23 by antibodies raised against the peptide (ELISA) (human IL-23 [6]) | further results
C-DSD IFK GEP ALL PDS PME QL-C | can neutralize mIL-23 | – | – | cross-neutralize hIL-23 | – | – | –
C-DSD IFK GEP ALL PDS PME QL-C-Y | – | – | – | – | – | – | Clinical signs of EAE (disease activity score) [3]: statistically significant lower disease activity than the two control groups; Clinical scores of articular inflammation ([4]; 100 μg coupled peptide in CFA plus boosts in IFA, followed until day 80, versus KLH alone or PBS): statistically significant protection at the late stage of disease; Histological scores of articular inflammation and destruction ([4]; histological sections of joints): limits the extent of both the articular inflammation and destruction at the histological level
DSD IFK GEP ALL PDS PME QL (DSDIFKGEPALLPDSPMEQL; Mus Musculus) [peptide derivative of mouse IL-23p19] | – | – | – | – | could recognize both the murine and human IL-23 cytokines | could recognize both the murine and human IL-23 cytokines | Generation of anti-mIL-23 antibodies in mice (murine IL-23 [7]): anti-mIL-23 Abs could be generated in mice

Further lines, with some results ahead:

Neutralization of the biological activity of murine IL-23 (murine IL-23 [2]) | Average % neutralization, SD (human IL-23 [1]) [%] | Average Titers50 (ELISA), SD (human IL-23 [6]) | Substance | Neutralization of the biological activity of human IL-23 (human IL-23 [1]) | Recognition of murine IL-23 by antibodies raised against the peptide (ELISA) (murine IL-23 [5]) | Recognition of human IL-23 by antibodies raised against the peptide (ELISA) (human IL-23 [6]) | further results
neutralize its biological activity | – | – | C-GSD IFT GEP SLL PDS PVG QL-C-Y (GSDIFTGEPSLLPDSPVGQL; not fully specified; terminal cysteines and C-terminal tyrosine; listed as Homo Sapiens) [peptide derivative of human IL-23 subunit p19, region Gly105 to Leu124, with two terminal cysteines and a C-terminal tyrosine] | could neutralize the biological activity of the human cytokine | could recognize the murine IL-23 cytokine | could generate antibodies recognizing the whole human IL-23 cytokine | –
– | 39 ± 11 | 2287 ± 175 | C-LPD SP-C-Y (CLPDSPCY; sub-sequence of seq ID NO2 with N-terminal cystein and C-terminal cystein and tyrosin) [CLPDSPC-Y, peptide 2 derived from hIL-23] | – | – | – | –
– | 35 ± 7 | 1758 ± 153 | CTGEPSC (sub-sequence of seq ID NO2 with C-terminal and N-terminal cystein) [C-TGE PS-C, peptide 1 derived from hIL-23] | – | – | – | –
